# Patent US20250076311A1 (Chugai, published 2025)
# Substitutions are numbered along the chain they refer to. Names and notes keep the numbering of the source.
# B1: M103205H795-MY292 (heavy chain) with M103202L889-SK1 (light chain) (antibody, human IgG1, kappa, name in EU numbering)
# heavy: QVTLKESGPVLVKPTETLTLTCTVSGIDLSHDDISWVRQAPGKGLEWVGIISYAGSTYYASWAKGRLTISKDTSKNQVVLTMTNMDPVDTATYYCARGVPAYSHGGDLWGQGTLVTVSSASTKGPSVFPLAPSSKSTSGGTAALGCLVKDYFPEPVTVSWNSGALTSGVHTFPAVLQSSGLYSLSSVVTVPSSSLGTQTYICNVNHKPSNTKVDKKVEPKSCDKTHTCPPCPAPELLGYPSVFLFPPKPKDTLMISRTPEVTCVVVDVSDEDPEVKFNWYVDGVEVHNAKTKPREELYNSTYRVVSVLTVLHQDWLNGKEYKCKVSNKALPKPIEKTISKAKGQPREPQVYTLPPSREEMTKNQVSLTCLVKGFYPSDIAVEWESNGQPENNYKTTPMVLDSDGSFFLYSKLTVDKSRWQQGNVFSCSVMHEALHNHYTQKSLSLSP
# light: DIVMTQSPATLSLSPGERATLSCTSSQSVYHANWLSWFQQKPGQPPKLLIYWASTLAYGVPSRFSGSGSGTDFTLTISSLQPEDAATYYCAGGYGGGRYAFGQGTKVEIKRTVAAPSVFIFPPSDEQLKSGTASVVCLLNNFYPREAKVQWKVDNALQSGNSQESVTEQDSKDSTYSLSSTLTLSKADYEKHKVYACEVTHQGLSSPVTKSFNRGEC
# notes: Substitutions introduced into M103205H795-SG1; positions in EU numbering
# B2: M103205H795-MY310 (heavy chain) with M103202L889-SK1 (light chain) (antibody, human IgG1, kappa, name in EU numbering)
# heavy: B1 heavy with G238T, Y239G, D270E, L297Q, K328T, M398P
# light: B1 light
# notes: as for B1
# B3: M103205H795-MY293 (heavy chain) with M103202L889-SK1 (light chain) (antibody, human IgG1, kappa, name in EU numbering)
# heavy: B1 heavy with D270E, M398K
# light: B1 light
# notes: as for B1
# B4: M103205H795-MY312 (heavy chain) with M103202L889-SK1 (light chain) (antibody, human IgG1, kappa, name in EU numbering)
# heavy: B1 heavy with G238T, Y239G, D270E, L297Q, K328T
# light: B1 light
# notes: as for B1
# B5: M103205H795-MY311 (heavy chain) with M103202L889-SK1 (light chain) (antibody, human IgG1, kappa, name in EU numbering)
# heavy: B1 heavy with G238T, Y239G, D270E, M398P
# light: B1 light
# notes: as for B1
# B6: GpH7-B3 G236A / GpL16-k0 (antibody, human IgG1, kappa)
# heavy: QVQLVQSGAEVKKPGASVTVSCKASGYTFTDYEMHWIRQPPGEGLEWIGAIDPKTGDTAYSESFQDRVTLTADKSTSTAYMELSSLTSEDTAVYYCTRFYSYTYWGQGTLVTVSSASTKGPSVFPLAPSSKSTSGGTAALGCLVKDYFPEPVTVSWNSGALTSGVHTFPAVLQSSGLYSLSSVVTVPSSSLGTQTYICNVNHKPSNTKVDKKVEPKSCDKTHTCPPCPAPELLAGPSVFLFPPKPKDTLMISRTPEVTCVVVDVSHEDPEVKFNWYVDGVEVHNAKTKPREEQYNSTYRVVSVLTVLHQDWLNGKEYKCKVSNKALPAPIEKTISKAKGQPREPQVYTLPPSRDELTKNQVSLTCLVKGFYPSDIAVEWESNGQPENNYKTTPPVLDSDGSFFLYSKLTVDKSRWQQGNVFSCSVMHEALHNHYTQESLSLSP
# light: DIVMTQSPLSLPVTPGEPASISCQASESLVHSNRNTYLHWYLQKPGQSPQLLIYKVSNRFSGVPDRFSGSGSGTDFTLKISRVEAEDVGVYYCSQNTHVPPTFGQGTKVEIERTVAAPSVFIFPPSDEQLKSGTASVVCLLNNFYPREAKVQWKVDNALQSGNSQESVTEQDSKDSTYSLSSTLTLSKADYEKHKVYACEVTHQGLSSPVTKSFNRGEC
# notes: also called B3 variant G236A
# B7: GpH7-B3 H268E / GpL16-k0 (antibody, human IgG1, kappa)
# heavy: not shown
# light: B6 light
# notes: also called B3 variant H268E
# B8: GpH7-B3 G236E / GpL16-k0 (antibody, human IgG1, kappa)
# heavy: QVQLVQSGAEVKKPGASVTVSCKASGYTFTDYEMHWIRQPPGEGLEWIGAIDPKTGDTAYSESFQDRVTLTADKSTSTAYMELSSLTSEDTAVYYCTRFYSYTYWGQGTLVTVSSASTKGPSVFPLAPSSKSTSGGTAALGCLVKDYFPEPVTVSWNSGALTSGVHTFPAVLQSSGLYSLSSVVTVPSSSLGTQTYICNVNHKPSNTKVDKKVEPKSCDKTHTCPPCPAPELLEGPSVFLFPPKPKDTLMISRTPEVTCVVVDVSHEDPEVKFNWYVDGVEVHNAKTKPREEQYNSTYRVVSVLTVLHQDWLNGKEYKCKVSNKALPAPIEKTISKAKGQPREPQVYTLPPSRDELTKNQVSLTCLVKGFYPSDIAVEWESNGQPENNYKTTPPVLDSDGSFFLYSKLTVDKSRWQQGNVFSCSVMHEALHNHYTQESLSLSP
# light: B6 light
# notes: also called B3 variant G236E
# B9: GpH7-B3 K334D / GpL16-k0 (antibody, human IgG1, kappa)
# heavy: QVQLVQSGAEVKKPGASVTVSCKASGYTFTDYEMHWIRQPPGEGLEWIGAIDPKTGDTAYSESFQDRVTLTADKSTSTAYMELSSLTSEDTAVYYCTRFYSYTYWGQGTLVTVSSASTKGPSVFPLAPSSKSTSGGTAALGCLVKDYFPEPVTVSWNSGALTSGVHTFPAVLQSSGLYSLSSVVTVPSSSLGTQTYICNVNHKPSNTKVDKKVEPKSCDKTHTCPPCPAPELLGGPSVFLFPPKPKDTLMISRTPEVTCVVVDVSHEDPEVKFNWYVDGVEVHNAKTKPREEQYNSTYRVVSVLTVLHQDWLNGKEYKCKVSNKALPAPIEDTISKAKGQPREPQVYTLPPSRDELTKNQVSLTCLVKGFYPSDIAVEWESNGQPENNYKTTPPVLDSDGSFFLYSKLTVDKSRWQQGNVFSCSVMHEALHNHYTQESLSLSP
# light: B6 light
# notes: also called B3 variant K334D
# B10: GpH7-B3 K334Y / GpL16-k0 (antibody, human IgG1, kappa)
# heavy: not shown
# light: B6 light
# notes: also called B3 variant K334Y
# B11: GpH7-B3 K326T / GpL16-k0 (antibody, human IgG1, kappa)
# heavy: not shown
# light: B6 light
# notes: also called B3 variant K326T
# B12: GpH7-B3 L235W / GpL16-k0 (antibody, human IgG1, kappa)
# heavy: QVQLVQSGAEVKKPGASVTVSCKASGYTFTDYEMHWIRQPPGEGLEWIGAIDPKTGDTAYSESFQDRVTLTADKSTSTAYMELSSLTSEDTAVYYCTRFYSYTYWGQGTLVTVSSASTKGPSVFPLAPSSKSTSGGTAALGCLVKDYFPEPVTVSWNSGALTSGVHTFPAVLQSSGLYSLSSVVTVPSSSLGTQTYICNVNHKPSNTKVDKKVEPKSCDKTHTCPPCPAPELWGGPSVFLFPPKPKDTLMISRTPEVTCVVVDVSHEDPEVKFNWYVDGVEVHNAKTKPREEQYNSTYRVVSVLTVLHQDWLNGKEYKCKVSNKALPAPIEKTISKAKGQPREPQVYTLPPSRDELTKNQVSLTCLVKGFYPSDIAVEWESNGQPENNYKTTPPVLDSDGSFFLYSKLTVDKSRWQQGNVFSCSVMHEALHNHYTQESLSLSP
# light: B6 light
# notes: also called B3 variant L235W
# B13: GpH7-B3 G236D / GpL16-k0 (antibody, human IgG1, kappa)
# heavy: not shown
# light: B6 light
# notes: also called B3 variant G236D
# B14: GpH7-B3 L234Y / GpL16-k0 (antibody, human IgG1, kappa)
# heavy: not shown
# light: B6 light
# notes: also called B3 variant L234Y
# B15: GpH7-B3 I332D / GpL16-k0 (antibody, human IgG1, kappa)
# heavy: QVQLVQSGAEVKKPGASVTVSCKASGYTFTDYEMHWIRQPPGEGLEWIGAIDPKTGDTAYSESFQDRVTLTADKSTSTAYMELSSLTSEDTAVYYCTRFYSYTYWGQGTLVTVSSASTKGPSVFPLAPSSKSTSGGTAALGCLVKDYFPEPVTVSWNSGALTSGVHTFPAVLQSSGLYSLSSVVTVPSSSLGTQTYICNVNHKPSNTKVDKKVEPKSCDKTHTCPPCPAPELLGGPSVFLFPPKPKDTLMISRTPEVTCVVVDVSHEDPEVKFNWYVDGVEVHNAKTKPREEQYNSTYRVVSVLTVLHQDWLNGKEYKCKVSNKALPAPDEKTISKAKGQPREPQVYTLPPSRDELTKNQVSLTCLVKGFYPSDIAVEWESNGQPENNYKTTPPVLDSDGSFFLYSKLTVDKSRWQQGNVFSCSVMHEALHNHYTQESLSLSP
# light: B6 light
# notes: also called B3 variant I332D
# B16: GpH7-B3 H268D / GpL16-k0 (antibody, human IgG1, kappa)
# heavy: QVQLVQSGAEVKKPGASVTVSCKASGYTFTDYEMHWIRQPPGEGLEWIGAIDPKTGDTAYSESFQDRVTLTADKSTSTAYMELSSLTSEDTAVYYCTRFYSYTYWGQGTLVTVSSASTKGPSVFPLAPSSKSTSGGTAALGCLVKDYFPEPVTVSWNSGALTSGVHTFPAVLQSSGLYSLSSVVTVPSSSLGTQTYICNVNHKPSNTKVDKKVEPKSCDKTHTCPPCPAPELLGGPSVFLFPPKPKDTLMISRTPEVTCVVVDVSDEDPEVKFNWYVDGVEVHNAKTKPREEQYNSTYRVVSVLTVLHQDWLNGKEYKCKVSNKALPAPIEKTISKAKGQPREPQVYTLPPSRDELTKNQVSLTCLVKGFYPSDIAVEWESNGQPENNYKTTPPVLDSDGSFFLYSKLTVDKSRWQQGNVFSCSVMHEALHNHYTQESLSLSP
# light: B6 light
# notes: also called B3 variant H268D
# B17: GpH7-B3 G236S / GpL16-k0 (antibody, human IgG1, kappa)
# heavy: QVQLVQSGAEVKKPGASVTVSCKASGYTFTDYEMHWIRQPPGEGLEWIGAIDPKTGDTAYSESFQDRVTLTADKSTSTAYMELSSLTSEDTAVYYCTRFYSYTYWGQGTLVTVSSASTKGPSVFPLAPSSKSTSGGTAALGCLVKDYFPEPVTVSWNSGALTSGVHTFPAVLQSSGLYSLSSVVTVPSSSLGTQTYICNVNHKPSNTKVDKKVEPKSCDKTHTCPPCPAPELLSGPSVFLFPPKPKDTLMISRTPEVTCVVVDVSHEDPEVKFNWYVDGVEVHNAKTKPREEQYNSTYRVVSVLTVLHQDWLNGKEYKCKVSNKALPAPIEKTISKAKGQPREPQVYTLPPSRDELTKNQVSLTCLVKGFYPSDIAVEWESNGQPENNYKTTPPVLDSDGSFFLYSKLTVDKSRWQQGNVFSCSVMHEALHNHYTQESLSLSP
# light: B6 light
# notes: also called B3 variant G236S
# B18: GpH7-B3 L234W / GpL16-k0 (antibody, human IgG1, kappa)
# heavy: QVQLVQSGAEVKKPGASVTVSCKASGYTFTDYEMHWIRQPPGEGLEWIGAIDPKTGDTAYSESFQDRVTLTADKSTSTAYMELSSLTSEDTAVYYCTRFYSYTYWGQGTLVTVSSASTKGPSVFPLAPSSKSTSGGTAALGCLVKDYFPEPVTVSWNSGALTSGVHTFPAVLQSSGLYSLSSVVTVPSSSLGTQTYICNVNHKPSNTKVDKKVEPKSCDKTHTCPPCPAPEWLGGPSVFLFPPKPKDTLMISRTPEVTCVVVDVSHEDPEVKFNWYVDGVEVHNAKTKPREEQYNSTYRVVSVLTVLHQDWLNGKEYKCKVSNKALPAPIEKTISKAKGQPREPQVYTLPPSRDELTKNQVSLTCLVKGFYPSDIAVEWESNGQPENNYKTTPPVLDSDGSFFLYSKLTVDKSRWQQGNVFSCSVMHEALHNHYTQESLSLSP
# light: B6 light
# notes: also called B3 variant L234W
# B19: GpH7-B3 K334V / GpL16-k0 (antibody, human IgG1, kappa)
# heavy: not shown
# light: B6 light
# notes: also called B3 variant K334V
# B20: GpH7-B3 K334M / GpL16-k0 (antibody, human IgG1, kappa)
# heavy: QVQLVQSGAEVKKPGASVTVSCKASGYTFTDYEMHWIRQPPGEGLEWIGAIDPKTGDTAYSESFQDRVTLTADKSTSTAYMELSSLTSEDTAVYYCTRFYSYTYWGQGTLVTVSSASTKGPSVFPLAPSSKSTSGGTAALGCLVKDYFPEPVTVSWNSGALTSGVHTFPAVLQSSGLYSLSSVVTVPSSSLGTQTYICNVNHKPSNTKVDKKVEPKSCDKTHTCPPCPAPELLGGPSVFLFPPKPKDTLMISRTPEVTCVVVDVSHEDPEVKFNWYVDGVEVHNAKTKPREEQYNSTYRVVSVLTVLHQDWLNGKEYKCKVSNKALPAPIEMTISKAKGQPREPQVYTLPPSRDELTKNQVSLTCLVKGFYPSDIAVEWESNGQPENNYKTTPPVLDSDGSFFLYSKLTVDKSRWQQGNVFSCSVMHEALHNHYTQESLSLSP
# light: B6 light
# notes: also called B3 variant K334M
# B21: GpH7-B3 P271D / GpL16-k0 (antibody, human IgG1, kappa)
# heavy: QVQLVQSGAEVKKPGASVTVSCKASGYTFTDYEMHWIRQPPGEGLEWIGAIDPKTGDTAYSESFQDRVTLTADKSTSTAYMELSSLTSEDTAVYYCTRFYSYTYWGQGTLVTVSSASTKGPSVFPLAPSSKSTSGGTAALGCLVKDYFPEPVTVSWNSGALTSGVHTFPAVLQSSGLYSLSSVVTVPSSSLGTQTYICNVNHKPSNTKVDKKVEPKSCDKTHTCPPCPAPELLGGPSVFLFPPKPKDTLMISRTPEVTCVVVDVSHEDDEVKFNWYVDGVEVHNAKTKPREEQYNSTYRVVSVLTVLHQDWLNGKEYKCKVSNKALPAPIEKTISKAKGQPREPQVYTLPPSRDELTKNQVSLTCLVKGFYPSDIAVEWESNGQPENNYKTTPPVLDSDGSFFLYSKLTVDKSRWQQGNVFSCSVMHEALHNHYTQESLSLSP
# light: B6 light
# notes: also called B3 variant P271D
# Target: T1, cynomolgus monkey FcγRIIIaS extracellular domain with C-terminal His-tag (cynomolgus monkey, UniProt Q8SPW2 21-206 at identity 1.00))
# T1 construct: also called cyno FcγRIIIaS; FcgRIIIaS
# T1 chain: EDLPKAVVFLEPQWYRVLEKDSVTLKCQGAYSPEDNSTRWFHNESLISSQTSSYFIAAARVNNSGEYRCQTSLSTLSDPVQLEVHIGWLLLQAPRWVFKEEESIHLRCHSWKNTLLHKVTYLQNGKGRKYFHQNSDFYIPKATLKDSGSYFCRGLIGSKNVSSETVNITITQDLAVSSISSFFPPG
# Assay: SPR; KD of SG1 / KD of variant
# Experimental: The kinetic analysis of interactions between these antibodies and FcγR was carried out using BIACORE® T200 or BIACORE® 4000 (GE Healthcare). HBS-EP+ (GE Healthcare) was used as the running buffer, and the measurement temperature was set to 25° C. […] After the measurement, the antibody captured on the chip was washed off by allowing reaction with 10 mM glycine-HCl, pH1.5 and 25 mM NaOH so that the chip was regenerated and used repeatedly. The sensorgrams obtained as measurement results were analyzed by the 1:1 Langmuir binding model using the BIACORE® Evaluation Software to calculate the binding rate constant ka (L/mol/s) and dissociation rate constant kd (1/s), and the dissociation constant KD (mol/L) was calculated from these values. […] Regarding such interactions, KD values were calculated using the following 1:1 binding model described in BIACORE® T100 Software Handbook BR1006-48 Edition AE.
row,Binder,KD fold (SG1 = 1) [fold]
1,B1,0.09
2,B2,0.2
3,B3,0.09
4,B4,0.55
5,B5,0.15

# Target: T2, human FcγRIIaH extracellular domain, His-tagged (human, UniProt P12318 34-217)
# T2 construct: also called human FcgRIIaH; FcγRIIa type H
# T2 sequence: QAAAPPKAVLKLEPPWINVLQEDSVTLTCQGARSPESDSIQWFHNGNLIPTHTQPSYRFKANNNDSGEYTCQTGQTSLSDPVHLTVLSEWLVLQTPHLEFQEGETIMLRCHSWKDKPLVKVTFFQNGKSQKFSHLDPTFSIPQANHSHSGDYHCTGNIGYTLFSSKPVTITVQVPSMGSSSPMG
# Assay: SPR (Biacore), 25C, FcgR bound per antibody captured
row,Binder,Binding to human FcgRs (parent B3 = 100)
1,B6,165
2,B7,169
3,B8,142
4,B9,97
5,B10,157
6,B11,138
7,B12,136
8,B13,109
9,B14,38
10,B15,129
11,B16,173
12,B17,147
13,B18,64
14,B19,172
15,B20,151

# Target: T3, human FcγRIIaR extracellular domain, His-tagged (human, UniProt P12318 34-217)
# T3 construct: also called human FcgRIIaR; FcγRIIa type R
# T3 chain: T2 sequence with H134R
# Assay: as above
row,Binder,Binding to human FcgRs (parent B3 = 100)
1,B6,168
2,B21,55
3,B7,132
4,B8,131
5,B9,72
6,B10,131
7,B11,127
8,B12,128
9,B13,91
10,B14,50
11,B15,139
12,B16,142
13,B17,161
14,B18,63
15,B19,132
16,B20,127

# Target: T4, human FcγRIIb extracellular domain, His-tagged (human, UniProt P31994 43-217)
# T4 construct: also called human FcgRIIb
# T4 sequence: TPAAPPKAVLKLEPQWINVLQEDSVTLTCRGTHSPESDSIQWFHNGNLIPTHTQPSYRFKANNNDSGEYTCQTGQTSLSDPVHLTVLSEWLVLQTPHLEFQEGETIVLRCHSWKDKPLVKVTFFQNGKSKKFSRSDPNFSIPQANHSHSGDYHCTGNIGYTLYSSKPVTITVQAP
# Assay: as above
row,Binder,Binding to human FcgRs (parent B3 = 100)
1,B6,94
2,B21,110
3,B7,283
4,B8,117
5,B9,108
6,B10,160
7,B11,195
8,B12,130
9,B13,212
10,B14,55
11,B15,198
12,B16,307
13,B17,87
14,B18,90
15,B19,184
16,B20,148

# Target: T5, human FcγRIIIaV extracellular domain, His-tagged (human, UniProt P08637 17-208)
# T5 construct: also called human FcgRIIIaV
# T5 sequence (P08637 17-208 F176V): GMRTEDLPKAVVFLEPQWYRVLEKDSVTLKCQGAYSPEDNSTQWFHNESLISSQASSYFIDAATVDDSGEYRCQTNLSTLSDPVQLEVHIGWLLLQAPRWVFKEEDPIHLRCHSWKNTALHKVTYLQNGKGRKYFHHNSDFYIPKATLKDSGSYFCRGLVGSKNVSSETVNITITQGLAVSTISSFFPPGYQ
# Assay: as above
row,Binder,Binding to human FcgRs (parent B3 = 100)
1,B6,65
2,B21,85
3,B7,205
4,B8,33
5,B9,155
6,B10,188
7,B11,164
8,B12,40
9,B13,25
10,B14,63
11,B15,235
12,B16,220
13,B17,33
14,B18,36
15,B19,176
16,B20,183
